The text below walks through data of patent US20240167005A1, “MODIFIED SHIGELLA APYRASE AND USES THEREOF” (APIRAYS BIOSCIENCES AB, priority 2021, published 2024).

Data set [1] relates to O=[N+]([O-])c1ccc(OP(=O)(O)O)cc1. In words: Affinity towards pNPP, L66V. The format is biochemical, Shigella flexneri. The following applies: other: L66V, 50 mM Tris-HCl pH 7.5, 37° C., 20 min, 500 ng enzyme. The source says: However, not all reactions successfully generated PCR products by agarose gel electrophoresis. The successful mutations were transformed into the expression host and proteins were expressed and purified to homogeneity by affinity chromatography.
Other substrates like 2-Glycerophosphate, Pyridoxal phosphate and phenyl phosphate were not hydrolysed by the mutants (Table 2 and FIG. 8A-B).
(§1) The formation of product. Para-nitro phenol was monitored colorimetrically at 405 nm using multi-mode spectrophotometer (Biotek instruments).
(§2) Respective colorimetric/fluorescence assays (mentioned above).

For data set [2], the system named is Cc1ncc(C[n+]2csc(CCO[P@](=O)(O)OP(=O)(O)O)c2C)c(N)n1. Description: purified protein, by the assay type. The following applies: other: L66V, TPP, 50 mM Tris-HCl pH 7.5, 37° C., 20 min, 500 ng enzyme.
Procedure: The kinetic curves were plotted and the Michaelis Menten constant (Km) was calculated using GraphPad Prism 5.0 software.
The test system of data set [3] is EIEC apyrase variant H116L. In words: Affinity of pNPP to EIEC H116L (Table 6). It is filed as biochemical.
Text: as §1, §2

For data set [4], the target named is T1, wild-type Shigella flexneri apyrase, SEQ ID NO: 1 (Shigella flexneri, UniProt Q59909).
T1 sequence (Q59909 26-246): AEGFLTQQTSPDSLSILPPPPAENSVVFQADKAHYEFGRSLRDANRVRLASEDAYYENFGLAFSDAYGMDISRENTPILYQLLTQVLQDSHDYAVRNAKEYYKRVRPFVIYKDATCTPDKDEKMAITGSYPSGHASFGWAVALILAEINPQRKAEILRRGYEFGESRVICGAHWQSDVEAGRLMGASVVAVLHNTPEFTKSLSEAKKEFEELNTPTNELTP
In words: pNPP dephosphorylation (Example 3), wild type. It is filed as biochemical. The note with it: 50 mM Tris, pH 7.5, 37° C., 15 min, 2 μg enzyme. As to the method: (§3) Products: para Nitro phenol (PNP, yellow colour, absorbance at 405 nm) and phosphate • pNPP+Apyrase→PNP+Pi
(§4) To further study the capability of the mutant enzyme to hydrolyse pNPP, the substrate (pNPP) was titrated and incubated with the mutant apyrase. As controls, alkaline phosphatase (known to hydrolyse pNPP) and the wildtype enzyme were also included.
(§5) The enzymes (2 μg) were incubated with different concentrations of pNPP (dissolved in 50 mM Tris, pH 7.5) in a 100 μL reaction mixture. For alkaline phosphatase, pNPP was dissolved in carbonate buffer (pH 10.3). Control reaction with pNPP lacking WT, mutant apyrase and alkaline phosphatase was also included. These were incubated at 37° C. for 15 minutes and absorbance was taken at 405 nm.

The test system of the next data set is alkaline phosphatase. Description: pNPP dephosphorylation (Example 3), alkaline phosphatase. The format is biochemical. The note with it: carbonate buffer pH 10.3, 37° C., 15 min, 2 μg enzyme. Here is the method: as §3, §4, §5
Data set [5] deals with Nc1ncnc2c1ncn2[C@@H]1O[C@H](COP(=O)(O)OP(=O)(O)OP(=O)(O)O)[C@@H](O)[C@H]1O. In words: Affinity of ATP to EIEC apyrase (Table 6). It is filed as biochemical. The following applies: other: EIEC apyrase, pH 7.5, 37.0 °C.
Text: as §2

For data set [6], the system named is O=[N+]([O-])c1ccc(OP(=O)(O)O)cc1. In words: Affinity of pNPP to EIEC apyrase (Table 6). The format is biochemical. The following applies: other: EIEC apyrase, pH 7.5, 37.0 °C.
Text: as §1, §2

Data set [7] has the same test system. In words: pNPP dephosphorylation (Example 3), mutant. The format is biochemical, Shigella flexneri. The note with it: other: mutant of Example 1, 50 mM Tris, pH 7.5, 37° C., 15 min, 2 μg enzyme. Here is the method:
In order to improve the activity of apyrase and its tolerance to high salt conditions, the inventors mutated the apyrase gene randomly using an error prone PCR method starting from the wild-type Shigella flexneri apyrase DNA sequence (SEQ ID NO: 4) as template. The method incorporates repeated copying of the template at high MgCl2 concentration (5 mM) with Taq polymerase. After every fourth cycle, one fifth of the reaction mixture was transferred to fresh PCR tube and the same process was repeated 22 times to obtain a product that will have randomly mutated nucleotides which can be identified by sequencing. The mutated gene was cloned in pET21a vector. The mutated DNA sequence obtained is presented as SEQ ID NO: 2, containing a total of 31 mutations leading to amino-acid changes (see SEQ ID NO:3 compared to the wild-type amino-acid sequence of SEQ ID NO: 1).
as §3
To further study the capability of the mutant enzyme to hydrolyse pNPP, the substrate (pNPP) was titrated and incubated with the mutant apyrase. […]
The enzymes (2 μg) were incubated with different concentrations of pNPP (dissolved in 50 mM Tris, pH 7.5) in a 100 μL reaction mixture. […] These were incubated at 37° C. for 15 minutes and absorbance was taken at 405 nm.

The conditions of data set [8]: Bhargava et al. Current Science 1995; cited from earlier work.
Data set [9] is described as follows: pNPP dephosphorylation assay (Example 3). It is filed as biochemical. The note with it: 2 μg enzyme, 3 mM pNPP, 50 mM Tris pH 7.5, 37° C., 15 minutes, FIG. 5. Here is the method:
Wild-type and mutant apyrase from Example 1 (2 μg each) were incubated with 3 mM pNPP (pNPP was dissolved in 50 mM Tris pH 7.5) in a 100 μL reaction mixture. Control reaction with pNPP lacking WT and mutant apyrase was also included. These were incubated at 37° C. for 15 minutes and absorbance was taken at 405 nm.
as §4, §5

Data set [10] is described as follows: TPP assay / affinity (Examples 4-5). It is filed as biochemical. The note with it: 5.0 mM TPP, 20 minutes, 37° C.; FIG. 8B, 9C. Here is the method:
A stock of freshly prepared TPP (50 mM) was prepared before performing every assay. […] Hydrolysis of Thiamine pyrophosphate (TPP) releases Thiamine, which forms a thiochrome fluorophore on addition of hydrogen peroxide and horse radish peroxidase (HRP) in alkaline conditions (NaOH-HRP-H2O2-1M NaOH, 5 U/mL HRP, 50 mM H2O2 mixed in a volumetric ratio of 3:1:1). Fluorescence was measured using multi-mode spectrophotometer (Biotek instruments) with excitation at 368 nm and emission at 450 nm.
as §2

A short description of data set [11]: pNPP assay / affinity (Examples 4-5). The format is biochemical. The following applies: 2.0 mM pNPP, 20 minutes, 37° C.; FIG. 8A, 9B.
Text: as §1, §2

The nature of data set [12]: ATP hydrolysis using purified recombinant apyrase (AMFAS, Example 2). It is filed as biochemical. As to the method: A titrated series of ATP solutions from 100 mM to 0.01 mM in 50 mM Tris, pH 7.5 were prepared and incubated with 700 ng of Apyrase (mutant prepared in Example 1 and wild-type Shigella flexneri apyrase as control) for 30 minutes at 37° C. (100 μL reaction). After the incubation, 100 μL AMFAS reagent was added and OD was taken at 630 nm using multimode reader (Biotek instruments). The color formation is proportional to the amount of ATP degraded (dephosphorylated to ADP or AMP). […] Specific activity at 10 mM ATP was determined as 6.3 μmoles/min/mg for the mutant apyrase.

Data set [13] is described as follows: Whole cell ATP degradation activity assay (periplasmic samples, AMFAS). The following applies: induced cells, lysozyme/EDTA, 37° C., 30 minutes. The format is biochemical. As to the method: As a crude assay for confirming expression of active enzyme, a whole cell ATP degradation activity assay was performed. 100 mM ATP was prepared in 50 mM Tris, pH 7.5. After dissolution, the pH was adjusted to 7.5 using NaOH. Pellets from 1 mL culture of induced cells were taken and washed twice with saline containing 1 mM Calcium chloride. The cells were treated with Lysozyme and EDTA to lyse the cell wall to release the periplasmic contents.
150 μL of 40 mM EDTA and 150 μL of 10 mM ATP was added to the pellet and mixed well, followed by incubation at 37° C. for 30 minutes.

Where a chain is given by its changes, count along the chain named. In names and notes the source's numbering stands.

What is called Km is the substrate concentration at which the rate is half of its maximum. With “Shigella flexneri apyrase (ApiOne, SEQ ID NO: 1) ApiTwo mutant L66V (Shigella flexneri; L66V)”, the Michaelis constant (Km) in data set [1] stood at 0.76 mM; in data set [2], 5.6 mM.
In the case of `O=[N+]([O-])c1ccc(OP(=O)(O)O)cc1` [pNPP, para-Nitrophenylphosphate], the Km worked out at 3.5 mM in data set [3] and 8.4 mM in the data set with alkaline phosphatase. Besides, in data set [4], the “Km for pNPP” value is reported as “Too low affinity”.
EIEC apyrase (Escherichia coli): the Michaelis constant (Km) in data set [5] stood at 0.021 mM; in data set [6], 25.0 mM.
For “Shigella flexneri apyrase, mutant apyrase of Example 1, SEQ ID NO: 3 (S50N, F54V, G63R, L66V, N70Q, E77V, A791, D90T, S97T, L108M, Q113N, V120R, K124R, Y127Q, P143R, 1151L, F162N, A167G, N174Q, K177R, L182F, G184A, W199Y, G206R, V213A, N219K, F223W, L227S, F234Y, T239Q, E243D) (Shigella flexneri; A167G/A79I/D90T/E243D/E77V/F162N/F223W/F234Y/F53V/G185A/G206R/G63R/I151L/K124R/K178R/L108M/L182F/L227S/L66V/N174Q/N219K/N70Q/P143R/Q113N/S50N/S97T/T239Q/V120R/V213A/W199Y/Y127Q)”, the Michaelis-Menten constant (Km) in data set [7] is recorded as 2.1 mM.

B1: ApiOne: wild-type Shigella flexneri apyrase, SEQ ID NO: 1, termed ApiOne (protein, listed as Shigella flexneri)
chain: MKTKNFLLFCIATNMIFIPSANALKAEGFLTQQTSPDSLSILPPPPAENSVVFQADKAHYEFGRSLRDANRVRLASEDAYYENFGLAFSDAYGMDISRENTPILYQLLTQVLQDSHDYAVRNAKEYYKRVRPFVIYKDATCTPDKDEKMAITGSYPSGHASFGWAVALILAEINPQRKAEILRRGYEFGESRVICGAHWQSDVEAGRLMGASVVAVLHNTPEFTKSLSEAKKEFEELNTPTNELTP
For B1, the “Hydrolysis of pNPP” value in [8] is “does not hydrolyse”. Further, the figures for the pNPP hydrolysis result in data set [9] and in data set [9] (listed as wildtype enzyme) were “not active” and “lacks such activity”, respectively. The “Hydrolysis of TPP (in words)” value in data set [10] is “no detectable activity”.

B2: L66V (protein, listed as Shigella flexneri)
chain: B1 chain with L66V
For the molecule B2, in [10], the “Hydrolysis of TPP (in words)” value is listed as “could hydrolyse”. Moreover, the “Hydrolysis of pNPP (in words)” value in data set [11] is given as “could hydrolyse”.

B3: E77V: Shigella flexneri apyrase (SEQ ID NO: 1) with single substitution E77V (protein, listed as Shigella flexneri)
chain: B1 chain with E77V
Take B3: the “Hydrolysis of TPP (in words)” value in [10] was “could hydrolyse”. In data set [11], the “Hydrolysis of pNPP (in words)” value is “could hydrolyse”.

B4: F53V: Shigella flexneri apyrase (SEQ ID NO: 1) with single substitution F53V (protein, listed as Shigella flexneri)
chain: B1 chain with F53V
On to B4, for which, in data set [10], the “Hydrolysis of TPP (in words)” value is “could hydrolyse”. Moreover, the “Hydrolysis of pNPP (in words)” value in [11] is reported as “could hydrolyse”.

B5: Mutant apyrase (protein)
chain: MKTKNFLLFCIATNMIFIPSANALKAEGFLTQQTSPDSLSILPPPPAENNVVVQADKAHYEFRRSVRDAQRVRLASVDIYYENFGLAFSTAYGMDITRENTPILYQLMTQVLNDSHDYARRNAREYQKRVRPFVIYKDATCTRDKDEKMALTGSYPSGHASNGWAVGLILAEIQPQRRAEIFRRAYEFGESRVICGAHYQSDVEARRLMGASAVAVLHKTPEWTKSSSEAKKEYEELNQPTNDLTPLEHHHHHH
modifications: Synthetic construct mutated variant
On to B5, for which the values for the pNPP hydrolysis entry in [9] (listed as mutant) and in data set [9] (listed as mutant apyrase) were “has acquired the ability to hydrolyse pNPP” and “considerable activity”, respectively. Also, in data set [12] (ATP 100 mM to 0.01 mM, 37° C., FIG. 4), the “ATP degradation activity compared with wild-type” value was “indistinguishable from the wild-type enzyme”. Moreover, the Specific activity in data set [12] (at 10 mM ATP) stood at 6.3 µmol/min/mg. In addition, in data set [13], the “ATP hydrolysis by periplasmic fraction” value is “can hydrolyse ATP similar to the WT apyrase”.
